Experiment [1] addresses T1, PKC-βI (purified isoform) (Homo sapiens (Human), UniProt P05771 2-671).
T1 construct: also called PKC-beta I
The experiment is described as follows: competitive ELISA on purified PKC-βI vs anti-PKC-βI Ab; PRE 50 µM. As to the method:
(§1) Greiner 96 well ELISA plates were coated with the appropriate PKC isoform diluted in PBSN (PBS with Calcium/Magnesium+0.05% Sodium azide w/w). 50 μL/well at 250 ng/mL was used. Control wells contained PBSN only. Plates were incubated overnight at 4° C.
(§2) The plates were washed 3 times with 200 μL of dH₂O per well, then 100 μL of blocking solution was added per well and the plate incubated for 1 h at 37° C. The washing steps with dH₂O were repeated and 50 μL of the appropriate PRE solution (PRE stock solution [20 mM in DMSO] diluted in PBSN) was added and the plate incubated for 1 h at room temperature.
(§3) 50 μL of 1:1000 dilution of Alkaline Phosphatase (AP) conjugated antibody (anti-rabbit for all except zeta, which was anti-goat) was then added and the plate incubated for 1 h at room temperature. Washing with dH₂O was then repeated. Finally, 100 μL of pNPP solution in pNPP buffer (2 mM MgCl₂, 100 mM Sodium bicarbonate in water, pH 9.8) was added to all wells and incubated for 8 minutes for α, βI, βII ε, and ζ, or for 15-20 mins for […] (until sufficient coloration is observed). The reaction was stopped by addition of Stop solution (2N NaOH) and the absorbance at 405 nm was read on a Galaxy Plate reader.
(In general: ELISA stands for enzyme-linked immunosorbent assay.)

Experiment [2] concerns the target T2, PKC-βII (purified isoform) (Homo sapiens (Human), UniProt P05771 2-621).
T2 construct: also called PKC-beta II
The experiment is described as follows: competitive ELISA on purified PKC-βII vs anti-PKC-βII Ab; PRE 200 µM. As to the method: as §1, §2, §3

Experiment [3] has as its target T3, PKC-δ (purified isoform) (Homo sapiens (Human), UniProt Q05655 1-676).
T3 construct: also called PKC-delta; PKCdelta
The experiment in a line: competitive ELISA on purified PKC-δ vs anti-PKC-δ Ab; PRE 50 µM. As to the method: as §1, §2, §3

In experiment [4] the target is T2, PKC-βII (purified isoform). The experiment is described as follows: summary grade, purified isoform ELISA.
For experiment [5], the target named is T1, PKC-βI (purified isoform). The experiment in a line: competitive ELISA on purified PKC-βI vs anti-PKC-βI Ab; PRE 200 µM. The procedure:
as §1, §2, §3

Experiment [6] has as its target T4, PKC-ι (endogenous, human cell extracts) (human, UniProt P41743 2-596).
T4 construct: also called PKC-iota
T4 sequence (looked up): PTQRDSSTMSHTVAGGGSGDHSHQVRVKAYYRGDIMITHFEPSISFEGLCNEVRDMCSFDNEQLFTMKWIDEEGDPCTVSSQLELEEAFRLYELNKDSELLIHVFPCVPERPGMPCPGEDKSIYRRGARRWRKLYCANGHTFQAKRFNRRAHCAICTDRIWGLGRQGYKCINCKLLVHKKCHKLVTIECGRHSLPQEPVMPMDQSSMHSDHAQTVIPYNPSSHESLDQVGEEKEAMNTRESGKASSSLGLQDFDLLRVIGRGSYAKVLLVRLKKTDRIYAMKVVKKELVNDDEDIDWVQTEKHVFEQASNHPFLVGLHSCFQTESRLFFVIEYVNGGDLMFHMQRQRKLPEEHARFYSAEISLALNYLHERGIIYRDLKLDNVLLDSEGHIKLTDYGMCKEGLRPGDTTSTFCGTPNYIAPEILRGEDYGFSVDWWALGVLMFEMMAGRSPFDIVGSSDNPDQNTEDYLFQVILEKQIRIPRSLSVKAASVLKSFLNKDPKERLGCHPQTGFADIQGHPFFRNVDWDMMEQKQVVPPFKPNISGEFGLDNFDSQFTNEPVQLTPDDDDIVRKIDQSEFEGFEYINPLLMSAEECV
The experiment in a line: Western-blot competition on cell extracts against the anti-PKC-ι primary antibody; band densitometry. As to the method:
Binding efficiency and specificity of the peptides PRE 2, 3, 4, 5, 6, 7, 8, 9, 10, 11, 12 and 13 (see Table 3) was also tested using cytoplasmic extracts from different cell lines expressing appropriate PKC isoforms as described for Example 1. Briefly, the protein cytoplasmic extracts were separated by electrophoresis and transferred onto nitrocellulose membranes by standard Western blotting procedures. The bands on the Western blots were detected with matching primary antibodies and alkaline phosphatase conjugated secondary antibody. The bands were then scanned and the relative density measurements obtained.
This procedure to assess the binding characteristics of the PREs is based on competition binding of the PRE with the primary anti-isoform PKC specific antibodies. The lower the measured band density, the greater the binding of the PRE to the PKC isoform. The PREs were added at 10 and 20 times (10×, 20×) the primary antibody concentration, according to classical competition between antigenic peptide and primary antibody. The following cell lines (obtained from the ATCC) were used: H661—NCI human lung carcinoma NSCLC; MDAMB231—human highly invasive breast cancer cell line from pleural effusion; LS180—human colon adenocarcinoma; LnCAP—human prostate adenocarcinoma; CCD16Lu—human lung fibroblasts; Du145—human prostate carcinoma brain metastasis, and T24—human bladder carcinoma.

The target in experiment [7] is T5, PKC-α (endogenous, human cell lysates and cells) (human, UniProt P17252 2-672).
T5 construct: Endogenous protein of human cell lysates, on Western blot membranes (denatured) or in fixed cells; also called PKC-alpha; PKC-A
The experiment in a line: anti-PKC-α immunofluorescence, V5E-transfected IMR-32 cells loaded with PRE (label on PKC-α and V5E); control with endocytosis reagent 113. The text has this: Neuroblastoma cells from the IMR-32 cell line were stably transfected with a vector containing the V5E sequence of PKC-α as outlined above in Example 13. The V5E sequence is part of the antigenic amino acid sequence that is used to raise the commercially available anti-PKC-α isoform-specific antibody.
The peptides PRE 1, 2, 3, 4, 5, 6, 7, 8, 9, 10, 11, 12 and 13 (see Table 3) were incorporated into the transfected IMR-32 cells via pinocytic endocytosis (Molecular Probes) according to the supplier's recommendations. Following fixation and permeabilization, PKC-α was detected using an Alexa fluor secondary antibody (as described above in Example 8).

The target of experiment [8] is T3, PKC-δ (purified isoform). The experiment in a line: competitive ELISA on purified PKC-δ vs anti-PKC-δ Ab; PRE 100 µM. As to the method: as §1, §2, §3
In experiment [9] the target is T1, PKC-βI (purified isoform). The experiment is described as follows: competitive ELISA on purified PKC-βI vs anti-PKC-βI Ab; PRE 100 µM. The procedure:
as §1, §2, §3

Experiment [10] addresses T2, PKC-βII (purified isoform). The experiment in a line: competitive ELISA on purified PKC-βII vs anti-PKC-βII Ab; PRE 50 µM. As to the method: as §1, §2, §3
Experiment [11] concerns the target T2, PKC-βII (purified isoform). The experiment in a line: competitive ELISA on purified PKC-βII vs anti-PKC-βII Ab; PRE 100 µM. As to the method: as §1, §2, §3
The target of experiment [12] is T3, PKC-δ (purified isoform). The experiment in a line: competitive ELISA on purified PKC-δ vs anti-PKC-δ Ab; PRE 200 µM. As to the method:
as §1, §2, §3

T1 sequence (P05771 2-671 limits assumed): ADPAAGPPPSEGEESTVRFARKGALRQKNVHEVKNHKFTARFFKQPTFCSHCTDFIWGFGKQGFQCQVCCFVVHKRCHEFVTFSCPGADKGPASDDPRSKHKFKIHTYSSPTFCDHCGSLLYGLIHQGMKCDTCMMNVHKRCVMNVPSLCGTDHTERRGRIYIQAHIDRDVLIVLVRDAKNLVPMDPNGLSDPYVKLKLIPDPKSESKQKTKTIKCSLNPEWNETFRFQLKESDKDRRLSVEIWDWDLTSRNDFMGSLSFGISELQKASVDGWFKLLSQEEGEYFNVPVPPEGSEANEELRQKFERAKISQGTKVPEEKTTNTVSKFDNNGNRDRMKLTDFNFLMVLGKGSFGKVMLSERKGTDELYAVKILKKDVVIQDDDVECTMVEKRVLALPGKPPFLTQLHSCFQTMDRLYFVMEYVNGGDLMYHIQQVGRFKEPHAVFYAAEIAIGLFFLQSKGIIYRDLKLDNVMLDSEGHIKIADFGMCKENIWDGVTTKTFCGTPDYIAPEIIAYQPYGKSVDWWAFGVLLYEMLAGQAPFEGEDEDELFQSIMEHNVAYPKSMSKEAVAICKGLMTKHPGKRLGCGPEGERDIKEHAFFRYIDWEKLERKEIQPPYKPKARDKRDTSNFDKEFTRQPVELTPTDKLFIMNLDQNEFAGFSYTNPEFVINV
T2 sequence (P05771 other isoform, or with tags, fused parts or gaps limits assumed): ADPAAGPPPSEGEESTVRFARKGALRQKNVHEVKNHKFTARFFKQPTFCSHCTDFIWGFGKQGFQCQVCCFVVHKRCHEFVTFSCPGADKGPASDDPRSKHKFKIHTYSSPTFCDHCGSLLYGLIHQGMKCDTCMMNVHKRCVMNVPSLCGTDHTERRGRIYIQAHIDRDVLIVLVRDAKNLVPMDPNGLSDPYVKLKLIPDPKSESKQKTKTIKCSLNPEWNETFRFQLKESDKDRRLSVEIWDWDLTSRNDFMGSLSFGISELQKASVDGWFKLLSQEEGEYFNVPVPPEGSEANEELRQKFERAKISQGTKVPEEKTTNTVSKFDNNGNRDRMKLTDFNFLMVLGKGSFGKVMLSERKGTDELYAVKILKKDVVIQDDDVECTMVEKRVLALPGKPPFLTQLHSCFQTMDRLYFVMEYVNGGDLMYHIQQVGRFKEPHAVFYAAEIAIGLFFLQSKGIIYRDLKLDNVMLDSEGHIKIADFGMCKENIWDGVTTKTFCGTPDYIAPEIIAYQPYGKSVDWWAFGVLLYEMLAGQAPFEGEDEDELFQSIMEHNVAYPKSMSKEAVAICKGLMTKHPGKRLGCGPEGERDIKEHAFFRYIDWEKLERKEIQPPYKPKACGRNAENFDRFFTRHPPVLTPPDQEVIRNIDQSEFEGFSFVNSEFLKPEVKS
T3 sequence (Q05655 whole entry, stated change not applied, canonical isoform): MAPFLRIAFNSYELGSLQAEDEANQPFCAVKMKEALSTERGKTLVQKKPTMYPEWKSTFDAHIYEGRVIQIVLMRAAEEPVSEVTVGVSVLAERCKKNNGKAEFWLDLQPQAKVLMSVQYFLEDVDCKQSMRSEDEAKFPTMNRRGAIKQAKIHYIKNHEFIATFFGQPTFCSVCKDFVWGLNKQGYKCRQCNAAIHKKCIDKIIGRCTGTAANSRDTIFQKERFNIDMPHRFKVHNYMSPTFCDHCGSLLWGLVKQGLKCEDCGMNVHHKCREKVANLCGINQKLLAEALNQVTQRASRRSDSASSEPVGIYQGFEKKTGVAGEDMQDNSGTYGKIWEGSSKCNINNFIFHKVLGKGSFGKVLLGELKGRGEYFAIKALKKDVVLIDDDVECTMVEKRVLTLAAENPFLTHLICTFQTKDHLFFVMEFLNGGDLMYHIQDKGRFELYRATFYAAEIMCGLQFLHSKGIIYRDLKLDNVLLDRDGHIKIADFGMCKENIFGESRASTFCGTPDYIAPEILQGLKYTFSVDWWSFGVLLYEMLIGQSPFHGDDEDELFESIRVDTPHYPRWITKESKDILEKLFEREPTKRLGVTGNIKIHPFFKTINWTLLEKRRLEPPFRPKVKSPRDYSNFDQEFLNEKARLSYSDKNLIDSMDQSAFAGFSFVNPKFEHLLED

B1: PRE 1 (peptide)
peptide: RRKKGGKDFVVKR
notes: Synthetic peptide, solid phase synthesis; termini given free; also called peptide PRE 1
B1: the “binding capacity (%)” value was 19.8% in experiment [1]; 0% in [2]; 35.7% in [3]; 13.4% in [5]; 45.2% in [8]; 13.9% in experiment [9]. The entries for the “binding capacity (%)” value in [10], in experiment [11] and in experiment [12] were 0%, 0% and 49.4%, respectively. Besides, the binding result is listed as “no binding (tested: 200 µM)” in experiment [4] and “no binding (tested: 20X the primary antibody concentration)” in experiment [6]. Besides, the “Relative Fluorescence Intensity” value in experiment [7] stood at 79.

The record behind these values is patent publication US20100041597A1 (published 2010).
